The assay deals with T1, human CD47 on CCRF-CEM cells (CD47 positive cells) (human, UniProt Q08722 19-323).
T1 construct: whole, on cells; also called hCD47-expressing tumor cells CCRF-CEM; CD47 receptor on the cell surface
The assay is described as follows: CD47-SIRPα blocking experiment, FIG. 5 legend.

B1: hybridoma positive clone 10B8 (antibody, V domains shown)
VH: QIQLQQSGPDLVKPGASVKISCKASGYTFTDYYIHWMKQKPGQGLEWIGWIYPGSGNTKYNEKFKGKATLTVDTSSSTPYMQLSSLTSEDTAVYFCARRREDSFDYWGQVTTLTVSS
VL: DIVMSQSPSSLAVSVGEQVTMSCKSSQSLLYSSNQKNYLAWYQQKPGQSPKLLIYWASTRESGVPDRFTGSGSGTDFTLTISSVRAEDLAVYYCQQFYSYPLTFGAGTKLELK
notes: Mouse hybridoma supernatant in the assay; Variable regions are printed for subclone 10B8-B8; also called Clone 10B8-B8
Take B1: the binding result is reported as “binds”.

For the origin of these results see patent publication US20210292412A1 (CHENGDU CONMED BIOSCIENCES, published 2021).
